Source: PMC12805100 (2025)

B1: 3xFLAG-WT hTRPA1 [human] / CaM-agarose resin (calmodulin coupled to agarose) [not stated] (parent complex)
chain 1: MKRSLRKMWRPGEKKEPQGVVYEDVPDDTEDFKESLKVVFEGSAYGLQNFNKQKKLKRCDDMDTFFLHYAAAEGQIELMEKITRDSSLEVLHEMDDYGNTPLHCAVEKNQIESVKFLLSRGANPNLRNFNMMAPLHIAVQGMNNEVMKVLLEHRTIDVNLEGENGNTAVIIACTTNNSEALQILLKKGAKPCKSNKWGCFPIHQAAFSGSKECMEIILRFGEEHGYSRQLHINFMNNGKATPLHLAVQNGDLEMIKMCLDNGAQIDPVEKGRCTAIHFAATQGATEIVKLMISSYSGSVDIVNTTDGCHETMLHRASLFDHHELADYLISVGADINKIDSEGRSPLILATASASWNIVNLLLSKGAQVDIKDNFGRNFLHLTVQQPYGLKNLRPEFMQMQQIKELVMDEDNDGCTPLHYACRQGGPGSVNNLLGFNVSIHSKSKDKKSPLHFAASYGRINTCQRLLQDISDTRLLNEGDLHGMTPLHLAAKNGHDKVVQLLLKKGALFLSDHNGWTALHHASMGGYTQTMKVILDTNLKCTDRLDEDGNTALHFAAREGHAKAVALLLSHNADIVLNKQQASFLHLALHNKRKEVVLTIIRSKRWDECLKIFSHNSPGNKCPITEMIEYLPECMKVLLDFCMLHSTEDKSCRDYYIEYNFKYLQCPLEFTKKTPTQDVIYEPLTALNAMVQNNRIELLNHPVCKEYLLMKWLAYGFRAHMMNLGSYCLGLIPMTILVVNIKPGMAFNSTGIINETSDHSEILDTTNSYLIKTCMILVFLSSIFGYCKEAGQIFQQKRNYFMDISNVLEWIIYTTGIIFVLPLFVEIPAHLQWQCGAIAVYFYWMNFLLYLQRFENCGIFIVMLEVILKTLLRSTVVFIFLLLAFGLSFYILLNLQDPFSSPLLSIIQTFSMMLGDINYRESFLEPYLRNELAHPVLSFAQLVSFTIFVPIVLMNLLIGLAVGDIAEVQKHASLKRIAMQVELHTSLEKKLPLWFLRKVDQKSTIVYPNKPRSGGMLFHIFCFLFCTGEIRQEIPNADKSLEMEILKQKYRLKDLTFLLEKQHELIKLIIQKMEIISETEDDDSHCSFQDRFKKEQMEQRNSRWNTVLRAVKAKTHHLEP
chain 2: not shown

Variants of: B1
Assay: CaM-agarose pulldown, quantified immunoblot; 2 mM Ca2+; lysates of HEK293T cells; n = 3; read off a plot

| Variant | response |
| --- | --- |
| chain 1 K989S, chain 1 R996S, chain 1 K997S, chain 1 K1001S, chain 1 W1103A | ~0.05 normalized pulldown (relative to WT hTRPA1 0.1 μM Ca2+ average) |
| chain 1 W1103A | ~0.36 normalized pulldown (relative to WT hTRPA1 0.1 μM Ca2+ average) |
